Measured values from patent US12104181B2, “Compositions and methods for treating viral infections targeting TRIM7” (THE BOARD OF REGENTS OF THE UNIVERSITY OF TEXAS SYSTEM, priority 2021, dated 2024).
Several values for one entry are separate records, joined by “and”; a condition that tells them apart may be missing. Equal entries are not always repeated.

B1: RNF112: human RING type E3 ligase expressed from lentiviral vector (protein, UniProt Q9ULX5 1-631, looked up)
RING finger protein 112: MPRPALSVTSFCHRLGKRERKQSFMGNSGNSWSHTPFPKLELGLGPQPMAPRELPTCSICLERLRDPISLDCGHDFCIRCFSTHRLPGCEPPCCPECRKICKQKRGLRSLGEKMKLLPQRPLPPALQETCPVRAEPLLLVRINASGGLILRMGAINRCLKHPLARDTPVCLLAVLGEQHSGKSFLLNHLLQGLPGLESGEGGRPRGGEASLQGCRWGANGLARGIWMWSHPFLLGKEGKKVAVFLVDTGDAMSPELSRETRIKLCALTTMLSSYQILSTSQELKDTDLDYLEMFVHVAEVMGKHYGMVPIQHLDLLVRDSSHPNKAGQGHVGNIFQRLSGRYPKVQELLQGKRARCCLLPAPGRRRMNQGHASPGDTDDDFRHLLGAYVSDVLSAAPQHAKSRCQGYWNEGRAVARGDRRLLTGQQLAQEIKNLSGWMGRTGPGFTSPDEMAAQLHDLRKVEAAKREFEEYVRQQDVATKRIFSALRVLPDTMRNLLSTQKDAILARHGVALLCKGRDQTLEALEAELQATAKAFMDSYTMRFCGHLAAVGGAVGAGLMGLAGGVVGAGMAAAALAAEAGMVAAGAAVGATGAAVVGGGVGAGLAATVGCMEKEEDERLLEGDREPLLQEE
modifications: lentiviral expression
notes: human RING type E3 ligase expressed from lentiviral vector
B2: RNF13: human RING type E3 ligase expressed from lentiviral vector (protein, UniProt O43567 35-381, looked up)
E3 ubiquitin-protein ligase …: DILAYNFENASQTFDDLPARFGYRLPAEGLKGFLINSKPENACEPIVPPPVKDNSSGTFIVLIRRLDCNFDIKVLNAQRAGYKAAIVHNVDSDDLISMGSNDIEVLKKIDIPSVFIGESSANSLKDEFTYEKGGHLILVPEFSLPLEYYLIPFLIIVGICLILIVIFMITKFVQDRHRARRNRLRKDQLKKLPVHKFKKGDEYDVCAICLDEYEDGDKLRILPCSHAYHCKCVDPWLTKTKKTCPVCKQKVVPSQGDSDSDTDSSQEENEVTEHTPLLRPLASVSAQSFGALSESRSHQNMTESSDYEEDDNEDTDSSDAENEINEHDVVVQLQPNGERDYNIANTV
B3: RNF182: human RING type E3 ligase expressed from lentiviral vector (protein, UniProt Q8N6D2 1-247, looked up)
E3 ubiquitin-protein ligase …: MASQPPEDTAESQASDELECKICYNRYNLKQRKPKVLECCHRVCAKCLYKIIDFGDSPQGVIVCPFCRFETCLPDDEVSSLPDDNNILVNLTCGGKGKKCLPENPTELLLTPKRLASLVSPSHTSSNCLVITIMEVQRESSPSLSSTPVVEFYRPASFDSVTTVSHNWTVWNCTSLLFQTSIRVLVWLLGLLYFSSLPLGIYLLVSKKVTLGVVFVSLVPSSLVILMVYGFCQCVCHEFLDCMAPPS
B4: RCHY1: human RING type E3 ligase expressed from lentiviral vector; listed twice (protein, UniProt Q96PM5 1-261, looked up)
RING finger and CHY zinc …: MAATAREDGASGQERGQRGCEHYDRGCLLKAPCCDKLYTCRLCHDNNEDHQLDRFKVKEVQCINCEKIQHAQQTCEECSTLFGEYYCDICHLFDKDKKQYHCENCGICRIGPKEDFFHCLKCNLCLAMNLQGRHKCIENVSRQNCPICLEDIHTSRVVAHVLPCGHLLHRTCYEEMLKEGYRCPLCMHSALDMTRYWRQLDDEVAQTPMPSEYQNMTVDILCNDCNGRSTVQFHILGMKCKICESYNTAQAGGRRISLDQQ
B5: RNF145: human RING type E3 ligase expressed from lentiviral vector (protein, UniProt Q96MT1 1-663, looked up)
RING finger protein 145: MAAKEKLEAVLNVALRVPSIMLLDVLYRWDVSSFFQQIQRSSLSNNPLFQYKYLALNMHYVGYILSVVLLTLPRQHLVQLYLYFLTALLLYAGHQISRDYVRSELEFAYEGPMYLEPLSMNRFTTALIGQLVVCTLCSCVMKTKQIWLFSAHMLPLLARLCLVPLETIVIINKFAMIFTGLEVLYFLGSNLLVPYNLAKSAYRELVQVVEVYGLLALGMSLWNQLVVPVLFMVFWLVLFALQIYSYFSTRDQPASRERLLFLFLTSIAECCSTPYSLLGLVFTVSFVALGVLTLCKFYLQGYRAFMNDPAMNRGMTEGVTLLILAVQTGLIELQVVHRAFLLSIILFIVVASILQSMLEIADPIVLALGASRDKSLWKHFRAVSLCLFLLVFPAYMAYMICQFFHMDFWLLIIISSSILTSLQVLGTLFIYVLFMVEEFRKEPVENMDDVIYYVNGTYRLLEFLVALCVVAYGVSETIFGEWTVMGSMIIFIHSYYNVWLRAQLGWKSFLLRRDAVNKIKSLPIATKEQLEKHNDICAICYQDMKSAVITPCSHFFHAGCLKKWLYVQETCPLCHCHLKNSSQLPGLGTEPVLQPHAGAEQNVMFQEGTEPPGQEHTPGTRIQEGSRDNNEYIARRPDNQEGAFDPKEYPHSAKDEAHPVESA
B6: RNF103: human RING type E3 ligase expressed from lentiviral vector (protein, UniProt O00237 1-685, looked up)
E3 ubiquitin-protein ligase …: MWLKLFFLLLYFLVLFVLARFFEAIVWYETGIFATQLVDPVALSFKKLKTILECRGLGYSGLPEKKDVRELVEKSGDLMEGELYSALKEEEASESVSSTNFSGEMHFYELVEDTKDGIWLVQVIANDRSPLVGKIHWEKMVKKVSRFGIRTGTFNCSSDPRYCRRRGWVRSTLIMSVPQTSTSKGKVMLKEYSGRKIEVEHIFKWITAHAASRIKTIYNAEHLKEEWNKSDQYWLKIYLFANLDQPPAFFSALSIKFTGRVEFIFVNVENWDNKSYMTDIGIYNMPSYILRTPEGIYRYGNHTGEFISLQAMDSFLRSLQPEVNDLFVLSLVLVNLMAWMDLFITQGATIKRFVVLISTLGTYNSLLIISWLPVLGFLQLPYLDSFYEYSLKLLRYSNTTTLASWVRADWMFYSSHPALFLSTYLGHGLLIDYFEKKRRRNNNNDEVNANNLEWLSSLWDWYTSYLFHPIASFQNFPVESDWDEDPDLFLERLAFPDLWLHPLIPTDYIKNLPMWRFKCLGVQSEEEMSEGSQDTENDSESENTDTLSSEKEVFEDKQSVLHNSPGTASHCDAEACSCANKYCQTSPCERKGRSYGSYNTNEDMEPDWLTWPADMLHCTECVVCLENFENGCLLMGLPCGHVFHQNCIVMWLAGGRHCCPVCRWPSYKKKQPYAQHQPLSNDVPS
modifications: lentiviral expression
notes: as for B1
B7: RSPRY1: human RING type E3 ligase expressed from lentiviral vector (protein, UniProt Q96DX4 17-576, looked up)
RING finger and SPRY …: QGLLLTLEEHIAHFLGTGGAATTMGNSCICRDDSGTDDSVDTQQQQAENSAVPTADTRSQPRDPVRPPRRGRGPHEPRRKKQNVDGLVLDTLAVIRTLVDNDQEPPYSMITLHEMAETDEGWLDVVQSLIRVIPLEDPLGPAVITLLLDECPLPTKDALQKLTEILNLNGEVACQDSSHPAKHRNTSAVLGCLAEKLAGPASIGLLSPGILEYLLQCLKLQSHPTVMLFALIALEKFAQTSENKLTISESSISDRLVTLESWANDPDYLKRQVGFCAQWSLDNLFLKEGRQLTYEKVNLSSIRAMLNSNDVSEYLKISPHGLEARCDASSFESVRCTFCVDAGVWYYEVTVVTSGVMQIGWATRDSKFLNHEGYGIGDDEYSCAYDGCRQLIWYNARSKPHIHPCWKEGDTVGFLLDLNEKQMIFFLNGNQLPPEKQVFSSTVSGFFAAASFMSYQQCEFNFGAKPFKYPPSMKFSTFNDYAFLTAEEKIILPRHRRLALLKQVSIRENCCSLCCDEVADTQLKPCGHSDLCMDCALQLETCPLCRKEIVSRIRQISHIS
B8: RFFL: human RING type E3 ligase expressed from lentiviral vector (protein, UniProt Q8WZ73 1-363, looked up)
E3 ubiquitin-protein ligase …: MWATCCNWFCLDGQPEEVPPPQGARMQAYSNPGYSSFPSPTGLEPSCKSCGAHFANTARKQTCLDCKKNFCMTCSSQVGNGPRLCLLCQRFRATAFQREELMKMKVKDLRDYLSLHDISTEMCREKEELVLLVLGQQPVISQEDRTRASTLSPDFPEQQAFLTQPHSSMVPPTSPNLPSSSAQATSVPPAQVQENQQANGHVSQDQEEPVYLESVARVPAEDETQSIDSEDSFVPGRRASLSDLTDLEDIEGLTVRQLKEILARNFVNYKGCCEKWELMERVTRLYKDQKGLQHLVSGAEDQNGGAVPSGLEENLCKICMDSPIDCVLLECGHMVTCTKCGKRMNECPICRQYVIRAVHVFRS
B9: MARCH3: human RING type E3 ligase expressed from lentiviral vector (protein, UniProt Q86UD3 1-253, looked up)
E3 ubiquitin-protein ligase …: MTTSRCSHLPEVLPDCTSSAAPVVKTVEDCGSLVNGQPQYVMQVSAKDGQLLSTVVRTLATQSPFNDRPMCRICHEGSSQEDLLSPCECTGTLGTIHRSCLEHWLSSSNTSYCELCHFRFAVERKPRPLVEWLRNPGPQHEKRTLFGDMVCFLFITPLATISGWLCLRGAVDHLHFSSRLEAVGLIALTVALFTIYLFWTLVSFRYHCRLYNEWRRTNQRVILLIPKSVNVPSNQPSLLGLHSVKRNSKETVV
modifications: lentiviral expression
notes: as for B1
B10: RNF135: human RING type E3 ligase expressed from lentiviral vector (protein, UniProt Q8IUD6 1-432, looked up)
E3 ubiquitin-protein ligase …: MAGLGLGSAVPVWLAEDDLGCIICQGLLDWPATLPCGHSFCRHCLEALWGARDARRWACPTCRQGAAQQPHLRKNTLLQDLADKYRRAAREIQAGSDPAHCPCPGSSSLSSAAARPRRRPELQRVAVEKSITEVAQELTELVEHLVDIVRSLQNQRPLSESGPDNELSILGKAFSSGVDLSMASPKLVTSDTAAGKIRDILHDLEEIQEKLQESVTWKEAPEAQMQGELLEAPSSSSCPLPDQSHPALRRASRFAQWAIHPTFNLKSLSCSLEVSKDSRTVTVSHRPQPYRWSCERFSTSQVLCSQALSSGKHYWEVDTRNCSHWAVGVASWEMSRDQVLGRTMDSCCVEWKGTSQLSAWHMVKETVLGSDRPGVVGIWLNLEEGKLAFYSVDNQEKLLYECTISASSPLYPAFWLYGLHPGNYLIIKQVKV
modifications: lentiviral expression
notes: as for B1
B11: RFPL3: human RING type E3 ligase expressed from lentiviral vector (protein, UniProt O75679 1-317, looked up)
Ret finger protein-like 3: MKRLSLVTTNRLSPQGNFLPLCTFPLAVDMAALFQEASSCPVCSDYLEKPMSLECGCTVCLKCINSLQKEPHGEDLLCCCCSMVSQRNKIRPNRQLERLVSHIKELEPKLKKILQMNPRMRKFQVDMTLDADTANNFLLISDDLRSVRSGLITQNRQDLAERFDVSVCILGSPRFTCGRHYWEVDVGTSTEWDLGVCRESVHCKGKIQLTTELGFWTVSLRDGSRLSASTVPLTFLLVDRKLQRVGIFLDMGMQNVSFFDAESGSHVYTFRSVSAEEPLRPFLAPSIPPNGDQGVLSICPLMNSGTTDAPVRPGEAK
modifications: lentiviral expression
notes: as for B1

tested on: coxsackievirus B3 (CVB3-GFP); type: cell-based; settings: HeLa cells, GFP-positive cells within RFP-positive gate, replicate R1

Going from B1 to B2, the “Percent Infected R1” value rises from 86.6% to 97.9%.

First: B3
Second: B5
The “Percent Infected R1” value of the first is higher: 97.9% for the first, 94.2% for the second.

Going from B6 to B7, the “Percent Infected R1” value falls from 96.9% to 91.4%.

Going from B8 to B9, the “Percent Infected R1” value rises from 88.2% to 91.4%.

Compared with B10, B11 is lower in “Percent Infected R1” value: 86.2% for the first, 78.3% for the second.

In the case of B4, the “Percent Infected R1” value is reported as 97.6% and 91.2%.

same assay, conditions: HeLa cells, replicate R1

Compared with B1, B2 is higher in “Z score R1” value: −0.03 for the first, 0.12 for the second.

Going from B3 to B5, the “Z score R1” value falls from 0.12 to 0.07.

First: B6
Second: B7
The “Z score R1” value of the first is higher: 0.11 for the first, 0.04 for the second.

First: B8
Second: B9
The “Z score R1” value of the first is lower: −0.01 for the first, 0.04 for the second.

Compared with B10, B11 is lower in “Z score R1” value: −0.03 for the first, −0.13 for the second.

With B4 the “Z score R1” value was 0.11 and 0.03.
